Source: article PMC10803776, “Structure of the M. tuberculosis DnaK−GrpE complex reveals how key DnaK roles are controlled” (Nature Communications, 2024)

Experiments:
SEC = target: the molecule itself; test: SEC
[1] = target: T1, Mycobacterium tuberculosis DnaK, full length, wild type (Mycobacterium tuberculosis, UniProt P9WMJ9 1-625); test: ITC; as a1, with 2 mM ADP added to both the DnaK and the GrpE solution; conditions: both partners purified
T1 construct: DnaK (Hsp70 chaperone) of Mycobacterium tuberculosis, full length; also called Mtb DnaK; WT DnaK

[2] = target: T1, Mycobacterium tuberculosis DnaK, full …; test: ITC; as a1, with 2 mM ATP added to both the DnaK and the GrpE solution; conditions: both partners purified

B1: Mycobacterium tuberculosis GrpE, full length, wild type (natural protein)
chain: MTDGNQKPDGNSGEQVTVTDKRRIDPETGEVRHVPPGDMPGGTAAADAAHTEDKVAELTADLQRVQADFANYRKRALRDQQAAADRAKASVVSQLLGVLDDLERARKHGDLESGPLKSVADKLDSALTGLGLVAFGAEGEDFDPVLHEAVQHEGDGGQGSKPVIGTVMRQGYQLGEQVLRHALVGVVDTVVVDAAELESVDDGTAVADTAENDQADQGNSADTSGEQAESEPSGS
notes: GrpE (nucleotide exchange factor) of Mycobacterium tuberculosis, full length; also called Mtb GrpE; WT GrpE
SEC
  stoichiometry N: 2
[1]
  Kd: 1.79 µM
  stoichiometry N: 0.69
[2]
  Kd: 20.7 µM
  stoichiometry N: 0.07
